Each binder was assayed against HLA-A*24 (human) (assay: UV-exchange ELISA (anti-b2m); yield 50%-75%).

| Binder | peptide exchange yield [%] |
| --- | --- |
| NYYERIHAL | 50 to 75 |
| IFGIFPNQF | 50 to 75 |
| KYLEDMKTYF | 50 to 75 |
| SYNGHLTIWF | 50 to 75 |
| VYVQILQKL | 50 to 75 |
| RYVEGIVSL | 50 to 75 |
| GYNPNRVFF | 50 to 75 |
| PYLVVIHTL | 50 to 75 |
| QYFTGNPLF | 50 to 75 |
| VYRVYVTTF | 50 to 75 |
| RYGLPAAWSTF | 50 to 75 |
| IYNETITDLL | 50 to 75 |
| RYSTFSEIF | 50 to 75 |
| PYFFANQEF | 50 to 75 |
| VFPRLHNVLF | 50 to 75 |
| AYIKGGWIL | 50 to 75 |
| FYINGQYQF | 50 to 75 |
| VYPFENFEF | 50 to 75 |
| TYGMVMVTF | 50 to 75 |
| TYIPVGLGRLL | 50 to 75 |
| TYPDGTYTGRIF | 50 to 75 |
| KYIFQLNEI | 50 to 75 |
| FYVNVKEQF | 50 to 75 |
| VFSRDFGLLVF | 50 to 75 |
| KYLMELTLI | 50 to 75 |

| Binder | peptide exchange yield [%] |
| --- | --- |
| EYLSTCSKL | 50 to 75 |
| IYQFVADSF | 50 to 75 |
| RYGFYYVEF | 50 to 75 |
| LYSELNKWSF | 50 to 75 |
| YYLSDSPLL | 50 to 75 |
| TYTNTLERL | 50 to 75 |
| SYPKIIEEF | 50 to 75 |
| LYSDAFKFIVF | 50 to 75 |
| PYLQDVPRI | 50 to 75 |
| EYFTPLLSGQF | 50 to 75 |
| IYSFHTLSF | 50 to 75 |
| VYPVVLNQI | 50 to 75 |
| EYLDRIGQLFF | 50 to 75 |
| IYNFVESKL | 50 to 75 |
| VFIHHLPQF | 50 to 75 |
| NYEDHFPLL | 50 to 75 |
| GYKTFFNEF | 50 to 75 |
| SYLKAVFNL | 50 to 75 |
| RYGDGGSSF | 50 to 75 |
| QYLTAAALHNL | 50 to 75 |
| EYQARIPEF | 50 to 75 |
| VYALKVRTI | 50 to 75 |
| RYLNKSFVL | 50 to 75 |
| NYIPVKNGKQF | 50 to 75 |
| NYSSAVQKF | 50 to 75 |

| Binder | peptide exchange yield [%] |
| --- | --- |
| VYIESRIGTSTSF | 50 to 75 |
| VYQSLSNSL | 50 to 75 |
| LYSELTETL | 50 to 75 |
| KYFPYLVVI | 50 to 75 |
| NYITGKGDVF | 50 to 75 |
| SYLNHLNNL | 50 to 75 |
| VYPPYLNYL | 50 to 75 |
| KYLNSVQYI | 50 to 75 |
| KYPDIVQQF | 50 to 75 |
| DYIPASGFALF | 50 to 75 |
| KYLQVVGMF | 50 to 75 |
| AYIPTPIYF | 50 to 75 |
| RYLEAALRL | 50 to 75 |
| VYFKAGLDVF | 50 to 75 |
| LYLENNAQTQF | 50 to 75 |
| IYNETVRDLL | 50 to 75 |
| HYVPATKVF | 50 to 75 |
| LYLAFPLAF | 50 to 75 |
| LYSPVPFTL | 50 to 75 |
| IYEETRGVL | 50 to 75 |
| IYRFITERF | 50 to 75 |
| IYPEWPVVFF | 50 to 75 |
| IYQYVADNF | 50 to 75 |
| IYLSDLTYI | 50 to 75 |
| VYEKNGYIYF | 50 to 75 |

From patent US20170056486A1
